The labels stand for the following.
B1: ACI-8016-3E6B11-AB1 (antibody, V domains shown)
VH: EVQLQQSGAELVRPGSSVKMSCKTSGYTFTNYGITWVKQRPGQGLEWIGYIYVGNGYTEYNEKFKDKAALTSDTSSSTAYMQLTSLTSDDSTIYFCARIAQGRCFDYWGQGTTLSVSS
VL: DIVLTQSPASSAVSLGQRATISCRASQSVSTSSYSYMHWYQQKPGQPPKLLIKYASTLESGVPARFSGSGSGTDFTLNIHPVEEEDTATYYCQHSWELPYMFGGGTKLEIK
notes: also called 936.3E6B11
B2: ACI-8016-29C5E11-AB1 (antibody, V domains shown)
VH: EVQLQQSGAELVRPGSSVKMSCRTSGYTFTNNGITWVKQRPGQGLEWIGYIYVGNGYTEYNEKFKDKATLTSDTASSTVYMQLNSLTSEDSAIYFCARLDRGRALDYWAQGTTLTVSS
VL: B1 VL with S11L, Q27K, T31S, S33A, K53H, Y54L, T57N, T87A, M101T
notes: also called 936.29C5E11
B3: ACI-8016-14G5B8-AB1 (antibody, V domains shown)
VH: EVQLQESGPELVKPGSSVKISCKASGYTFADHYMNWVKQSHGKSLEWIGDINPNNGGSVYNQKFKGKATLTVDKSSSTAYMELRSLTSEDSAVYFCARRRAHYYDGPYFDYWGQGTTLTVSS
VL: DIVMTQSQKFMSTSVGDRVSLTCKASQIVGTAVAWYQQKPGQSPKLLIYSASIRYTGVPDRFTGSGSGTDFTLTISNMQSEDLADYFCQQYSNYPTFGAGTKLELK
notes: also called 936.14G5B8
B4: ACI-8016-2516A8C6-AB1 (antibody, V domains shown)
VH: QVQLQQSGAELARPGASVKLSCKASGHTFTSYGISWVKQRTGQGLEWIGKIYPRSGNTYYDEKFKGKATLTADKPSTTAYMELRSLTSEDSAVYFCATRDYWGQGTTLTVSS
VL: QIVLTQSPVIMSASPGEKVTITCSASSSVSYMYWFQQKPGTSPKFWIYSTSNLASGVPARFSGSGSGTSYSLTISRMEAEDAATYYCQQRSRYPWTFGGGTKLEIK
B5: ACI-8016-2602H6F10-AB1 (antibody, V domains shown)
VH: QVQLQQSGAELARPGASVKLSCKASGFSFTSYGISWVKQRTGQGLEWIGQIYLRSSNTYYNEKFKDKATLTADKSSSTVYMELRSLTSEDSAVYFCARYYGSSSDYWGQGTTLTVSS
VL: DIQMNQSPSSLSASLGDTITINCHASQNINVWLSWYQQKPGNIPKVLIYQASNLQTGVPTRFSGSGSGTGFTLTISRLQPEDIATYYCQQGQRYPWTFGGGTKLEIK
B6: ACI-8016-27A1G4-AB1 (antibody, V domains shown)
VH: QVQLQQSDAELVKPGASVKISCKVSGYTFTDHTIHWMRQRPEQGLEWIGYIYPGDASSYYNEKFKGKATLTADQSSNTAYIQVNSLTSEDSAVYFCARPLYSYASYYWFAYWGQGTLVTVSA
VL: B5 VL with N22T, S34T, V46L, Q50K, Q55H, G57D, T60S, R77S, R93S, W96L
notes: also called 936.27A1G4
B7: ACI-8016-11A3F3-AB1 (antibody, V domains shown)
VH: QVQLQQSGAELARPGTSVKLSCKASGYTFISFGLSWVKQRTGQGLEWIGEIYPRIDNPYYNEKFKGKAILTADKSSSTAYMELRSLTSEDSAVYFCARYFTKGNYFDYWGQGTTLTVSS
VL: DIQMTQSPASLAASVGETVTITCRASENIYYSLAWYQQKQGKSPQVLIYYANSLEDGVPSRFSGSGSGTQYSLKINSMQPEDTATYFCKQAYDVPFTFGTGTKLELK
notes: also called 936.11A3F3
B8: ACI-8016-19E6D4-AB1 (antibody, V domains shown)
VH: EVKLVESGGGLVQPGGSLKLSCAASGFTFSDYYMYWVRQNAEKRLEWVAYISSGGDAPFYSDNLKGRFTISRDNAKNTLYLQMSRLQPEDTAMYFCAREGFYYYGLYGMDYWGQGTSVTVSS
VL: DIVLSQSPATLSVTPGDSVSLSCRASQSIGDNLHWYQQKSHESPRLIIKSASQSISGIPSRFSGSGSGTDFTLSINIVETEDFGMYFCQQSDTWPLTFGPGTKLELK
notes: also called 936.19E6D4
B9: ACI-8016-2A1B12-AB1 (antibody, V domains shown)
VH: EVQLQQSGAELVRPGSSVKMSCETSGYTFTTYGLTWVKQRPGQGLEWIGYIYVGNGYTEYNEKFKDKATLTSDTSSSIVYMQLSSLTSEDSAIYFCARLGLRRHFDYWGQGTTLTVSS
VL: AIQMTQTTSSLSASLGDRVTISCRASQDISNYLHWYQQKPDGTVKLLIFFTSGLRSGVPSRFSGSGSGTDYSLTISNLEQEDIATYFCQQSILLPWTFGGGTKLEIK
notes: also called 936.2A1B12
B10: ACI-8016-17H1G2-AB1 (antibody, V domains shown)
VH: EVQLQQSGAELVRPGSSVKMSCKTSGFTFTSYGISWVIQRPEQGLEWIGYIYIRNGYTEYNEKFKGKATLTSDTSSNTAYMQLSNLASEDSAIYFCVRIHRRFFDYWGQGTTLTVSS
VL: DIQMTQTTSSLSASLGDRVTISCSASQGISNYLNWFQQKPNGTVRLLIYYTSSLHSGVPSRFSGSGSGTDYSLTISNLEPEDIATYYCQQYDRLPWTFGGGTKLEIK
notes: also called 936.17H1G2
B11: ACI-8016-207E8B2-AB1 (antibody, V domains shown)
VH: QVQLQQSGAELAKPGASVKLSCKASGYTFTSYWMHWVKQRPGQGLEWIGYINPSSGYTKCNQKFKDKATLTADKSSSTAYMQLSSLTYEDSAVYYCVFPFDYDGFDYWGQGTTLTVSS
VL: DVLMTQTPLSLPVSLGDQASISCRSSQSIVHSNGNTYLEWYLQKPGQSPKLLIYKVSNRFSGVPDRFSGSGSGTVFTLKISRVEAEDLGVYYCFQDSHFPFTFGSGTKLEIK
B12: ACI-8016-7G3B5-AB1 (antibody, V domains shown)
VH: EVQLQQSVAELVRPGASVKLSCTASGFNIKNTYMHWVKQRPEQGLEWIGRIDPANGNTKYVPKFQGKATITADTSSKTAYLQLSSLTSEDTAIYYCTRWGFDKDGVVYAMDYWGQGTSVTVSS
VL: DVVLTQSPATLSVTPGDSVSLSCRASQSIYNNLHWYQQKSHESPRLLVKYASQSISGIPSRFSGSGSGTDFTLSINSVETEDFGMYFCQQSNSWPLTFGAGTKLELK
notes: also called 936.7G3B5

For orientation: EC50 means the concentration at which the effect is half-maximal. Higher therefore signals lower potency in that assay.

Where a chain is given by its changes, count along the chain named.

T2 sequence (Q9ULZ3 1-91 limits assumed): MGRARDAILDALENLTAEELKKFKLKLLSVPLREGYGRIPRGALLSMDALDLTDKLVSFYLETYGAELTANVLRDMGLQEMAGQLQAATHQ

In the first assay the target is T1, human ASC (apoptosis associated speck-like protein containing a caspase-recruitment domain) (human, UniProt Q9ULZ3 1-195).
T1 construct: recombinant hASC in ELISA and SPR; endogenous ASC (cytoplasmic or specks) in Western blot and immunofluorescence; also called hASC; PYCARD
The assay can be described thus: ELISA, coated hASC.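 Also: antibody binding to plate-coated recombinant human ASC, read as phosphatase substrate absorbance, EC50 from four-parameter variable-slope fit.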
Consider B1, for which the EC50 was determined as 0.15 nM.
For the molecule B2, the EC50 is 0.16 nM.
The same measure, in the same setting: the same measure for B3: 0.09 nM; for B4: 0.26 nM.
Consider B5, for which the EC50 turned out to be 11.1 nM.
In turn, B6 came in with an EC50 of 0.15 nM.
The same measure, in the same setting: the same measure for B7: 0.11 nM.
B8: the EC50 was determined as 0.1 nM.
B9 gave an EC50 of 0.17 nM.
B10: the EC50 worked out at 0.13 nM.
B11 yielded an EC50 of 0.1 nM.
On the same count and under the same terms, the result for B12 reads 0.19 nM.

A further assay has as its target T2, PYD domain of human ASC (human, UniProt Q9ULZ3 1-91, limits assumed).
T2 construct: biotinylated in BLI; His/MBP-tagged in the alanine ELISA; also called hPYD; human PYD
Briefly: ELISA, coated hPYD.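 Also: monoclonal antibody binding to plate-coated human ASC PYD measured by ELISA, with a phosphatase substrate absorbance read-out and EC50 from a variable slope curve fit.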
Take B1: the binding result is reported as “no binding”.
On to B2, for which the binding result is “no binding”.
B3: the binding result is on record as “no binding”.
Take B4: the EC50 turned out to be 0.16 nM.
Molecule B5 came in with an EC50 of 2.52 nM.
Regarding B6, the binding result was “no binding”.
Still for that read-out and setting: the result for B7 reads “no binding”; that for B8, “no binding”.
In turn, B9 had an EC50 of 3.34 nM. In other words, the single-digit nanomolar range.
For B10, the binding result is “no binding”.
In the case of B11, a half-maximal response (EC50) required 0.12 nM.
On to B12, for which the EC50 was found to be 0.16 nM. This EC50 and that of the molecule before are within 1.5-fold of each other.

In the next assay the target is T3, mouse ASC (mouse, UniProt Q9EPB4 1-193).
T3 construct: recombinant mASC in ELISA and SPR; endogenous ASC of J774.A1 cells in Western blot and immunofluorescence; also called mASC
T3 sequence: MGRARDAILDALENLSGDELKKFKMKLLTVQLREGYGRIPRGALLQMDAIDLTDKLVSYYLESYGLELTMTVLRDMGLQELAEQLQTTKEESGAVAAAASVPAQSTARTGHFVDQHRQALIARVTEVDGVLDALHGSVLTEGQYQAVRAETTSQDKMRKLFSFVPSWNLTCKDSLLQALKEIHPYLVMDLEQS
The assay can be described thus: ELISA, coated mASC.
On to B1, for which a half-maximal effect (EC50) was put at 0.15 nM.
Same read-out and setting: the result for B2 reads 0.14 nM.
For the molecule B3, it took 0.16 nM to reach a half-maximal effect (EC50).
B4 had an EC50 of 0.26 nM.
B5: the EC50 turned out to be 4.52 nM.
Same read-out and setting: the result for B6 reads 0.11 nM.
Same read-out and setting: the same measure for B7: 0.63 nM.
Take B8: the binding result was “no binding”.
For the molecule B9, the concentration giving a half-maximal response (EC50) turned out to be 1.56 nM.
Molecule B10 returned an EC50 of 0.19 nM. This EC50 is about 8.2-fold lower than that of the molecule before.
The molecule B11 came in with an EC50 of 0.11 nM.
B12 yielded an EC50 of 0.17 nM. Against the preceding molecule, the EC50 is about 1.5-fold higher.

In a further assay the target is T4, CARD domain of human ASC (human, UniProt Q9ULZ3 107-195).
T4 construct: biotinylated in BLI; also called hCARD; human CARD
T4 sequence: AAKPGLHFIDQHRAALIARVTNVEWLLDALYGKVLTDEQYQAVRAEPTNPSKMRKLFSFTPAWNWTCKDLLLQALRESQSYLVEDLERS
Briefly: ELISA, coated hCARD. For orientation: In an ELISA, binding on a coated surface is turned into a signal by an enzyme label.
In turn, B1 showed an EC50 of 0.13 nM.
In turn, B2 returned an EC50 of 0.14 nM.
For B3, the midpoint of the response, the EC50, lay at 0.17 nM. This EC50 and that of the molecule before are within 1.5-fold of each other.
Regarding B4, the binding result was “no binding”.
Same read-out and setting: the same measure for B5: “no binding”.
As for B6, the EC50 turned out to be 0.13 nM. In other words, the sub-nanomolar range.
B7 registered an EC50 of 0.12 nM. This EC50 and that of the molecule before are within 1.5-fold of each other.
With B8, the EC50 worked out at 0.09 nM.
For the molecule B9, the EC50 was 0.13 nM.
Consider B10, for which the EC50 is 0.1 nM.
For the molecule B11, the binding result is given as “no binding”.
On the same count and under the same terms, the result for B12 reads “no binding”.

The record behind these values is patent publication US20250320284A1 (AC IMMUNE, published 2025).
